Measurements published in US20200308309A1 (Novartis, published 2020).

T1: Recombinant marmoset IL-18 (marmoset, UniProt U3CWC9 37-190)
T1 construct: also called marIL-18
T1 sequence: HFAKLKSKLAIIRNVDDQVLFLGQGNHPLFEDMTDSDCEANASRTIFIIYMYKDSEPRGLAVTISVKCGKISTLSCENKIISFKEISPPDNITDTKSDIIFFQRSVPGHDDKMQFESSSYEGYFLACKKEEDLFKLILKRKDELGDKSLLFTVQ


Tests used:
Recombinant human IL-1β = target: T2, Recombinant human IL-1β (human, UniProt P01584 117-269); assay: SET simultaneous target binding, Assay B (both targets in serial dilutions in one mix), ECL read-out
T2 construct: also called huIL-1β

[1] = target: T3, Recombinant marmoset IL-1β (marmoset, UniProt U3E018 117-268); assay: as above
T3 construct: also called marIL-1β

[2] = target: T3, Recombinant marmoset IL-1β; assay: cell-based or functional assay
Recombinant human IL-18 = target: T4, Recombinant human IL-18 (human, UniProt Q14116 37-193); assay: SET simultaneous target binding, Assay B (both targets in serial dilutions in one mix), ECL read-out
T4 construct: A biotinylated form (BTP25828) was coated on the read-out plate in the SET assay; The titrated antigen in solution is huIL-18; also called huIL-18

[3] = target: T1, Recombinant marmoset IL-18; assay: as above

Row | binding result (Recombinant human IL-1β) | binding result [1] | IL-6 prod. in dermal fibroblasts stimulated with recombinant marmoset IL-1β (18 pM), IC50, Exp. A (marmoset dermal fibroblasts by the column head) [2] [pM] | IL-6 prod. in dermal fibroblasts stimulated with recombinant marmoset IL-1β (18 pM), IC50, Exp. B (marmoset or human fibroblasts: column heads unclear) [2] [nM] | IL-6 prod. in dermal fibroblasts stimulated with recombinant marmoset IL-1β (18 pM), IC50, Exp. C (marmoset or human fibroblasts: column heads unclear) [2] [nM] | binding result (Recombinant human IL-18) | binding result [3] | Binder
1 | no binding | no binding | – | – | – | – | – | mAb1 (antibody, human IgG1, lambda, L234A L235A, V domains shown, Human monospecific bivalent IgG1 with lambda light chain (Vlambda1); also called IL-18 antibody; anti-IL18 IgG1) VH: EVQLVQSGAEVKKPGSSVKVSCKASGGTFKSYAISWVRQAPGQGLEWMGNIIPMTGQTYYAQKFQGRVTITADESTSTAYMELSSLRSEDTAVYYCARAAYHPLVFDNWGQGTLVTVSS VL: DIVLTQPPSVSGAPGQRVTISCSGSSSNIGNHYVNWYQQLPGTAPKLLIYRNNHRPSGVPDRFSGSKSGTSASLAITGLQSEDEADYYCQSWDYSGFSTVFGGGTKLTVLG
2 | – | – | 95 | 0.138 | 0.114 | no binding | no binding | mAb2 (antibody, human IgG1, kappa, V domains shown, Human monospecific bivalent IgG1 with kappa light chain (Vkappa6); also called IL-1β antibody; anti IL-1β IgG1) VH: QVQLVESGGGVVQPGRSLRLSCAASGFTFSVYGMNWVRQAPGKGLEWVAIIWYDGDNQYYADSVKGRFTISRDNSKNTLYLQMNGLRAEDTAVYYCARDLRTGPFDYWGQGTLVTVSS VL: EIVLTQSPDFQSVTPKEKVTITCRASQSIGSSLHWYQQKPDQSPKLLIKYASQSFSGVPSRFSGSGSGTDFTLTINSLEAEDAAAYYCHQSSSLPFTFGPGTKVDIKR
